Laboratory results published in US8703698B2, “Compositions and methods for treating atherosclerosis” (The University of Chicago, priority 2003, dated 2014).

Experiments:
J774 macrophages [1] = test: Cholesterol efflux from cholesterol-laden J774 macrophages to apolipoprotein liposomes with 8-bromo-cAMP or methyl-β-cyclodextrin; type: cell-based, mouse
Text: The export process of cholesterol is coupled to the ATP binding cassette transporter (ABCA1) pathway. Lipid efflux to apolipoproteins has been shown previously to be stimulated by treatment of murine macrophages with cAMP analogues (Lin et al. 2002 Biochem Biophys Res. Commun. 290:663-669; Oram et al. 2000 J. Biol. Chem. 275:34508-34511). Also, the expression of ABCA1 is induced by cAMP treatment (Lin et al. 2002 Biochem Biophys Res. Commun. 290:663-669; Oram et al. 2000 J. Biol. Chem. 275:34508-34511). The inventors herein examined the effect of 8-bromo-cAMP (0.3 mM) on cholesterol efflux by liposomes containing various apolipoproteins when incubated with cholesterol-laden J774 macrophages. Such cells were pre-labeled with [^3H]-cholesterol in the presence of Sandoz 58-035, an ACAT inhibitor, to ensure that all of the radiolabeled cholesterol released from the cells was derived from the un-esterified cholesterol pool, and the cells were treated for 12 hours with 8-bromo-cAMP. This was followed by incubation with various acceptors. The fractional release of cellular labeled cholesterol was determined as a function of time.
To investigate whether an apolipoprotein free cholesterol acceptor such as cyclodextrin has the ability to catalyze the removal of cholesterol from macrophages, cholesterol-loaded and labeled J774 cells were incubated with liposomes and methyl-β-cyclodextrin (0.1 mM) (CD).
To examine whether cholesterol export from J774 cells to medium containing liposomes containing 2 μM murine apoA-1, SAA1.1 or SAA2.1 is a cAMP-dependent process, the radio-labeled cholesterol-laden cells were incubated overnight with 8-Br-cAMP (0.3 mM), prior to the addition of liposomes containing 2 μM murine apoA-1, SAA1.1 or SAA2.1 to the culture medium. Cholesterol efflux to the medium was then determined at the indicated time points as described above. Efflux of radioactive label to the medium was calculated as a percentage of total counts in each well.

[2] = test system: cholesterol ester hydrolase; test: Rate of hydrolysis of cholesteryl ester in cholesterol-laden J774 cells (cholesterol ester hydrolase activity); type: cell-based, murine; settings: lipoproteins or protein liposomes; tissue culture
Protocol: Identification of the domain of SAA2.1 that is responsible for enhancing cholesterol ester hydrolase activity was performed in J774 cells preloaded with radio-labeled cholesteryl esters. These experiments were performed in the presence of Sandoz 58-035, an inhibitor of acyl CoA:cholesterol acyl transferase activity, to prevent re-esterification of liberated cholesterol and [^14C]oleate. Incubations proceeded for times ranging from 0 to 24 hours, following which the remaining quantities of [^14C]-labeled cholesteryl oleate in cells were measured to determine the rate of hydrolysis of cholesteryl ester. […] However, an equivalent amount of liposomes containing the synthetic peptide corresponding to amino acid residues 74-103 of murine SAA2.1 caused a 3-fold increase in cholesterol ester hydrolase activity in these cholesterol-laden murine cells. Newly confluent J774 cells were labeled with [^14C]-oleate during cholesterol loading with red blood cell membranes as described above. Cells were then incubated for up to 24 hours with 2 mL of DMEM containing 5% LPDS and 50 μg/mL of either native HDL, SAA-HDL, liposomes containing 2 μmoles of apoA-1, SAA1.1 or 2.1, or liposomes containing 0.5:mol synthetic peptides corresponding to amino acid residues 1-20 (SEQ ID NO:1), 21-50 (SEQ ID NO:2), 51-80 (SEQ ID NO:3) and 74-103 (SEQ ID NO:4) of murine SAA2.1. To determine the rate of cholesteryl ester hydrolysis, 2 μg/mL of the acyl CoA:cholesterol acyl transferase inhibitor Sandoz 58-035 (propanimide, 3-(decyldimethylsilyl)-N-[2-(4-methylphenyl)-1-phenylethyl]-(9Cl) was added during incubation with lipoproteins or liposomes to prevent […] and free cholesterol. To examine whether or not the rate of cholesteryl ester hydrolysis involved the lysosomal cholesteryl ester hydrolase, the cells were cultured in the presence of 50 μg/mL of either native HDL and chloroquine or SAA-HDL and chloroquine (100:M). Chloroquine is an agent that neutralizes the lysosomal proton gradient. At various time points, cellular lipids were extracted and analyzed for cholesteryl ester radioactivity as described above.

[3] = biological target: T1, acyl CoA:cholesterol acyl transferase (Mus musculus, UniProt Q61263); test: Incorporation of [14C]oleate into cholesteryl ester in cholesterol-laden macrophages (ACAT activity); type: cell-based, murine; settings: lipoproteins or protein liposomes; tissue culture
T1 construct: host or cells: J774 mouse macrophages, cholesterol-loaded
T1 sequence (Q61263 1-540): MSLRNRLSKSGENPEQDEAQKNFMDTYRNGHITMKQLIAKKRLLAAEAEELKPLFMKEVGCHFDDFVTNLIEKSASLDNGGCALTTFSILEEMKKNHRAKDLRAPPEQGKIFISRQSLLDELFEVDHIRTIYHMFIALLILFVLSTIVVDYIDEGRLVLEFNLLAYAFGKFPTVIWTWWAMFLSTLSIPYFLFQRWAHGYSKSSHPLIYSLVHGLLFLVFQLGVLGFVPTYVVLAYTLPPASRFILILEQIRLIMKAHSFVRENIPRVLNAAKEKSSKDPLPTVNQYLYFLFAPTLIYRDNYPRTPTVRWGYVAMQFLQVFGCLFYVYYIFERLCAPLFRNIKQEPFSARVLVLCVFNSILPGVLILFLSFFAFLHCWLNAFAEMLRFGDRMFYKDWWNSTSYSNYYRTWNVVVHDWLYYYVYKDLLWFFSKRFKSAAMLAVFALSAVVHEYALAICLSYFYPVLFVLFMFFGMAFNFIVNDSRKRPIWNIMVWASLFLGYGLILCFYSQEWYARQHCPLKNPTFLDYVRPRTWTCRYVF
Protocol: The incorporation of [^14C]oleate into cholesteryl ester was used as a measure of acyl CoA:cholesterol acyl transferase activity to identify compositions inhibiting the enzyme activity. The relative acyl CoA:cholesterol acyl transferase activity was determined in cholesterol-laden murine cells that had been cultured in medium in the absence of liposomes or in the presence of protein-free liposomes or liposomes containing 0.5 μM synthetic peptides corresponding to amino acids 1-20, 21-50, 51-80 and 74-103 of murine SAA2.1.
To load the cells with cholesterol, nearly confluent mono-layers were washed 3 times with phosphate buffered saline containing 2 mg/mL fatty acid-free bovine serum albumin (PBS-BSA) and incubated for 5 hours in DMEM supplemented with 5% lipoprotein-depleted serum (LPDS) (d>1.25 g/mL) and 175 μg of red blood cell membrane cholesterol. For the purpose of pool equilibration of added cholesterol, cell cultures were rinsed twice with PBS-BSA and incubated overnight in DMEM containing 5% LPDS. The relative activity of acyl CoA:cholesterol acyl transferase was determined in cholesterol-laden cells that had been cultured in medium containing no liposomes, protein-free liposomes or liposomes containing 0.5:M synthetic peptides corresponding to amino acid residues 1-20 (SEQ ID NO:1), 21-50 (SEQ ID NO:2), 51-80 (SEQ ID NO:3) or 74-103 (SEQ ID NO:4) of murine SAA2.1, respectively. Following 3 hours incubation with the above media, [^14C]-oleate was added and the cells were incubated for another 3 hour period (Mendez et al. J. Clin. Invest. 1994 94:1698-1705; Oram et al. Arterioscler. Thromb. 1991 11:403-414). Cells were chilled on ice and washed twice with PBS-BSA and twice with PBS. After addition of [^3H]-cholesteryl oleate (6000 dpm/well) as an internal standard, the lipids were extracted from the labeled cells and analyzed by thin-layer chromatography as described by Mendez et al. (J. Clin. Invest. 1994 94:1698-1705) and Oram et al. (Arterioscler. Thromb. 1991 11:403-414). The radioactivity in appropriate spots was measured to determine the incorporation of radioactivity into cholesteryl esters as a measure of acyl CoA:cholesterol acyl transferase activity.

J774 macrophages [4] = settings: Tam et al. 2002; cited from earlier work
[5] = biological target: T1, acyl CoA:cholesterol acyl transferase; test: ACAT activity in macrophage post-nuclear homogenates; type: biochemical, murine; settings: macrophage post-nuclear homogenates as enzyme source
Text: The in vitro effects of acute phase-HDL (AP-HDL;HDL-SAA) on acyl CoA:cholesterol acyl transferase and cholesterol ester hydrolase activities and on cellular cholesterol export were studied by the inventors using purified enzymes, cell homogenates, and whole cells. […] In contrast, murine SAA1.1 and apoA-1 had no effect. […] Using macrophages preloaded with radio-labeled cholesterol and injected intravenously into either inflamed or un-inflamed mice, it was shown that the inflamed mice, which have high SAA2.1 levels, effluxed cholesterol more rapidly and to a greater extent (6-fold greater) than their un-inflamed counterparts.

B1: GFFSFIGEAFQGAGDMWRAYTDMKEAGWKDGDKYFHARGNYDAAQRGPGGVWAAEKISD ARESFQEFFGRGHEDTMADQEANRHGRSGKDPNYYRPPGLPAKY (protein, listed as Mus musculis)
chain: GFFSFIGEAFQGAGDMWRAYTDMKEAGWKDGDKYFHARGNYDAAQRGPGGVWAAEKISDARESFQEFFGRGHEDTMADQEANRHGRSGKDPNYYRPPGLPAKY
notes: full length murine serum amyloid A isoform 1.1
stimulation of cholesterol efflux to liposomes with or without cAMP pre-treatment (J774 macrophages [1]; 8-bromo-cAMP 0.3 mM): No stimulation of efflux
increase in the initial rate of cholesterol efflux with CD treatment (J774 macrophages [1]; methyl-β-cyclodextrin 0.1 mM plus liposomes): not
cholesterol ester hydrolase activity in intact cholesterol-laden macrophages [2]: no effect on enzyme activities
acyl CoA:cholesterol acyl transferase activity in intact cholesterol-laden macrophages [3]: no effect on enzyme activities
promotion of cholesterol efflux from cholesterol-laden macrophages compared to protein-free liposomes (J774 macrophages [4]): not any more effective than protein-free liposomes
acyl CoA:cholesterol acyl transferase activity [5]: had no effect
